{"source": "the supplement of paper PMC10567573", "experiment": "protein stability index of a GFP-peptide fusion (GPS, HEK-293T) (PSI 1-6); higher = more stable", "details": "c terminus: a fixed tail appended", "note": "± gives the standard deviation.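 Note: 24-mer peptide tiles fused after GFP, lentivirally expressed, FACS-sorted into six equal bins by GFP/DsRed ratio, decoded by Illumina sequencing, PSI is the read-weighted mean bin number.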", "data": [{"sequence": "KVEEVSLPEQVDIIISEPMGYMLF [CARM1]", "values": [{"measurement": "protein stability index", "setting": "treatment: DMSO", "value": "2.88 ± 0.49"}, {"measurement": "protein stability index", "setting": "treatment: MLN4924 1 uM, 8 h", "value": "2.54 ± 0.35"}]}, {"sequence": "HPANRSCRETGSFLDLFRYRVLLG [SLC22A15]", "values": [{"measurement": "protein stability index", "setting": "treatment: DMSO", "value": "2.48 ± 0.44"}, {"measurement": "protein stability index", "setting": "treatment: MLN4924 1 uM, 8 h", "value": "2.15 ± 0.42"}]}, {"sequence": "TLLGNPKKRMRYFDPLRNEYFFDR [KCNA1]", "values": [{"measurement": "protein stability index", "setting": "treatment: DMSO", "value": "2.27 ± 0.29"}, {"measurement": "protein stability index", "setting": "treatment: MLN4924 1 uM, 8 h", "value": "2.3 ± 0.057"}]}, {"sequence": "LQQIADFMTTNVPNVYPAAPQGGM [ADD1]", "values": [{"measurement": "protein stability index", "setting": "treatment: DMSO", "value": "3.3 ± 0.2"}, {"measurement": "protein stability index", "setting": "treatment: MLN4924 1 uM, 8 h", "value": "3.29 ± 0.17"}]}, {"sequence": "RRNLEEDDYLHKDTGETSMLKRPV [STEAP1]", "values": [{"measurement": "protein stability index", "setting": "treatment: DMSO", "value": "4.69 ± 0.13"}, {"measurement": "protein stability index", "setting": "treatment: MLN4924 1 uM, 8 h", "value": "4.76 ± 0.19"}]}, {"sequence": "KREMILKRKEEEALKDSLRPKLSE [VDR]", "values": [{"measurement": "protein stability index", "setting": "treatment: DMSO", "value": "4.82 ± 0.28"}, {"measurement": "protein stability index", "setting": "treatment: MLN4924 1 uM, 8 h", "value": "5.24 ± 0.24"}]}, {"sequence": "RLTSQDWERVHLIVAGGYDERVLE [ALG2]", "values": [{"measurement": "protein stability index", "setting": "treatment: DMSO", "value": "3.06 ± 0.28"}, {"measurement": "protein stability index", "setting": "treatment: MLN4924 1 uM, 8 h", "value": "3.21 ± 0.27"}]}, {"sequence": "MPEEVHHGEEEVETFAFQAEIAQL [HSP90AB1]", "values": [{"measurement": "protein stability index", "setting": "treatment: DMSO", "value": "5.24 ± 0.28"}, {"measurement": "protein stability index", "setting": "treatment: MLN4924 1 uM, 8 h", "value": "5.16 ± 0.14"}]}, {"sequence": "QPPPAPPKKIMPEAHSHYLYGHML [PPFIA4]", "values": [{"measurement": "protein stability index", "setting": "treatment: DMSO", "value": "2.76 ± 0.26"}, {"measurement": "protein stability index", "setting": "treatment: MLN4924 1 uM, 8 h", "value": "2.91 ± 0.22"}]}, {"sequence": "QGWMNLLNMAKKSVDIVSSHWDLN [PLD5]", "values": [{"measurement": "protein stability index", "setting": "treatment: DMSO", "value": "2.9 ± 0.45"}, {"measurement": "protein stability index", "setting": "treatment: MLN4924 1 uM, 8 h", "value": "3.46 ± 0.69"}]}, {"sequence": "EVENQFILRLPLEHACTVRNLARS [TAF7L]", "values": [{"measurement": "protein stability index", "setting": "treatment: DMSO", "value": "2.66 ± 0.12"}, {"measurement": "protein stability index", "setting": "treatment: MLN4924 1 uM, 8 h", "value": "2.51 ± 0.24"}]}, {"sequence": "ICDRTATPLDAFRMTSAAHYYPKL [GFOD1]", "values": [{"measurement": "protein stability index", "setting": "treatment: DMSO", "value": "2.85 ± 0.21"}, {"measurement": "protein stability index", "setting": "treatment: MLN4924 1 uM, 8 h", "value": "2.82 ± 0.16"}]}, {"sequence": "KTHSSPALSQGHVTGSKTTKDATG [PSD2]", "values": [{"measurement": "protein stability index", "setting": "treatment: DMSO", "value": "5.37 ± 0.06"}, {"measurement": "protein stability index", "setting": "treatment: MLN4924 1 uM, 8 h", "value": "5.46 ± 0.17"}]}, {"sequence": "PQVWREAATQVFFALGLGFGGVIA [SLC6A17]", "values": [{"measurement": "protein stability index", "setting": "treatment: DMSO", "value": "3.78 ± 0.85"}, {"measurement": "protein stability index", "setting": "treatment: MLN4924 1 uM, 8 h", "value": "3.4 ± 0.82"}]}, {"sequence": "LASLSFIDTVYSTAFAPKMIVDLL [OR4A15]", "values": [{"measurement": "protein stability index", "setting": "treatment: DMSO", "value": "2.66 ± 0.32"}, {"measurement": "protein stability index", "setting": "treatment: MLN4924 1 uM, 8 h", "value": "3.05 ± 0.34"}]}, {"sequence": "RCGYRLVRRQRSADEQLHCAGKAK [ESR2]", "values": [{"measurement": "protein stability index", "setting": "treatment: DMSO", "value": "3.69 ± 0.36"}, {"measurement": "protein stability index", "setting": "treatment: MLN4924 1 uM, 8 h", "value": "3.91 ± 0.26"}]}, {"sequence": "RSFVEKHRWPSNMYLKQLAEYRKY [RHOBTB3]", "values": [{"measurement": "protein stability index", "setting": "treatment: DMSO", "value": "2.38 ± 0.24"}, {"measurement": "protein stability index", "setting": "treatment: MLN4924 1 uM, 8 h", "value": "2.62 ± 0.74"}]}, {"sequence": "ACGIEHCSVHYVSDSGDGVYAGRP [FBXO34]", "values": [{"measurement": "protein stability index", "setting": "treatment: DMSO", "value": "2.25 ± 0.29"}, {"measurement": "protein stability index", "setting": "treatment: MLN4924 1 uM, 8 h", "value": "2.84 ± 1.1"}]}, {"sequence": "RPKDTVMCYRVRWEEAAPGRAVEH [MYORG]", "values": [{"measurement": "protein stability index", "setting": "treatment: DMSO", "value": "2.85 ± 0.39"}, {"measurement": "protein stability index", "setting": "treatment: MLN4924 1 uM, 8 h", "value": "2.91 ± 0.35"}]}, {"sequence": "FLFVLGGEDQWNPNGKHSTNFVSR [KLHL14]", "values": [{"measurement": "protein stability index", "setting": "treatment: DMSO", "value": "2.11 ± 0.15"}, {"measurement": "protein stability index", "setting": "treatment: MLN4924 1 uM, 8 h", "value": "2.27 ± 0.41"}]}, {"sequence": "CQALPYGPGYWMCCHRSQKGFPGC [FBXO34]", "values": [{"measurement": "protein stability index", "setting": "treatment: DMSO", "value": "2.35 ± 0.44"}, {"measurement": "protein stability index", "setting": "treatment: MLN4924 1 uM, 8 h", "value": "2.23 ± 0.32"}]}, {"sequence": "HRNLSQLPNFAFSVPLAYFLLSQQ [TCF25]", "values": [{"measurement": "protein stability index", "setting": "treatment: DMSO", "value": "2.26 ± 0.56"}, {"measurement": "protein stability index", "setting": "treatment: MLN4924 1 uM, 8 h", "value": "2.65 ± 0.26"}]}, {"sequence": "GDWLLTANGSEIHKHVHFSSSFTS [SLC22A15]", "values": [{"measurement": "protein stability index", "setting": "treatment: DMSO", "value": "2.59 ± 0.25"}, {"measurement": "protein stability index", "setting": "treatment: MLN4924 1 uM, 8 h", "value": "2.49 ± 0.36"}]}, {"sequence": "NQEITKAFHVRRTNRVKECLAKGT [RHOBTB2]", "values": [{"measurement": "protein stability index", "setting": "treatment: DMSO", "value": "3.41 ± 0.51"}, {"measurement": "protein stability index", "setting": "treatment: MLN4924 1 uM, 8 h", "value": "3.64 ± 0.7"}]}, {"sequence": "NTNLHTHQRTHTGEKPFTCHECGK [ZNF75A]", "values": [{"measurement": "protein stability index", "setting": "treatment: DMSO", "value": "4.51 ± 0.14"}, {"measurement": "protein stability index", "setting": "treatment: MLN4924 1 uM, 8 h", "value": "4.54 ± 0.18"}]}, {"sequence": "SSETPIEGKNMSFVNDLTVTQDGR [APMAP]", "values": [{"measurement": "protein stability index", "setting": "treatment: DMSO", "value": "4.96 ± 0.34"}, {"measurement": "protein stability index", "setting": "treatment: MLN4924 1 uM, 8 h", "value": "4.87 ± 0.25"}]}, {"sequence": "VYTETVHVTVENVQELLPAACLLQ [KLHL12]", "values": [{"measurement": "protein stability index", "setting": "treatment: DMSO", "value": "2.12 ± 0.52"}, {"measurement": "protein stability index", "setting": "treatment: MLN4924 1 uM, 8 h", "value": "1.91 ± 0.26"}]}, {"sequence": "LVSGSQSALGPPPAASNSSDLFDL [CLINT1]", "values": [{"measurement": "protein stability index", "setting": "treatment: DMSO", "value": "4.43 ± 0.24"}, {"measurement": "protein stability index", "setting": "treatment: MLN4924 1 uM, 8 h", "value": "4.34 ± 0.18"}]}]}
